The values below come from patent publication US6132750A (Coletica, priority 1998, dated 2000).

A short description of this experiment: Inhibition of the Fe2+ induced radical degradation of hyaluronic acid (viscosity drop). The protocol:
The chelating microspheres prepared according to I2 are used to evaluate their capacity, via the trapping of ferrous iron Fe2+, to inhibit the radical degradation of hyaluronic acid, glycosarinoglycan implied in the moisturisation of the human dermis, which is therefore a particularly important target to protect in cosmetic and dermo-pharmaceutical applications.
A 10 g/l solution of hyaluronic acid of high molecular weight (>1,000,000g/mol or Daltons) is prepared in demineralised water. To this solution is added an amount of Fe2+ of 620 ppm.
Other chelating agents which are conventionally used in cosmetics were used and compared to the chelating microspheres, for their capacity to reduce the radical degradation of hyaluronic acid. Indices of protection, expressed in % of protection, are calculated by carrying out a ratio of the drop in viscosity observed by the presence of iron Fe2+ (620 ppm) in the presence of the chelating agent studied, and the drop in viscosity observed with and without iron Fe2+.

B1: Lactoferrin (protein, UniProt P02788 20-710, looked up)
Lactotransferrin: GRRRSVQWCAVSQPEATKCFQWQRNMRKVRGPPVSCIKRDSPIQCIQAIAENRADAVTLDGGFIYEAGLAPYKLRPVAAEVYGTERQPRTHYYAVAVVKKGGSFQLNELQGLKSCHTGLRRTAGWNVPIGTLRPFLNWTGPPEPIEAAVARFFSASCVPGADKGQFPNLCRLCAGTGENKCAFSSQEPYFSYSGAFKCLRDGAGDVAFIRESTVFEDLSDEAERDEYELLCPDNTRKPVDKFKDCHLARVPSHAVVARSVNGKEDAIWNLLRQAQEKFGKDKSPKFQLFGSPSGQKDLLFKDSAIGFSRVPPRIDSGLYLGSGYFTAIQNLRKSEEEVAARRARVVWCAVGEQELRKCNQWSGLSEGSVTCSSASTTEDCIALVLKGEADAMSLDGGYVYTAGKCGLVPVLAENYKSQQSSDPDPNCVDRPVEGYLAVAVVRRSDTSLTWNSVKGKKSCHTAVDRTAGWNIPMGLLFNQTGSCKFDEYFSQSCAPGSDPRSNLCALCIGDEQGENKCVPNSNERYYGYTGAFRCLAENAGDVAFVKDVTVLQNTDGNNNEAWAKDLKLADFALLCLDGKRKPVTEARSCHLAMAPNHAVVSRMDKVERLKQVLLHQQAKFGRNGSDCPDKFCLFQSETKNLLFNDNTECLARLHGKTTYEKYLGPQYVAGITNLKKCSTSPLLEACEFLRK
notes: chelating agent conventionally used in cosmetics for trapping iron
As for B1, the “Index of protection (%)” value (concentration used 133 mg/l, hyaluronic acid 10 g/l, Fe2+ 620 ppm) came to 25%. Also, the “effect on the depolymerisation (radical cleavage) of hyaluronic acid in the presence of iron” value (in words) is listed as “accelerated”.
